Measured values published in patent KR20190006154A.

Molecular target: FMDV O1 Manisa (Foot and Mouth Disease Virus serotype O)
Assay: indirect ELISA, inactivated FMDV coated, hybridoma supernatant

B1: 4B14 (antibody, V domains shown)
VH: EVQLQQSGPEVVKPGASVKMSCKASGYSFTGYYMNWVKQSHVKSLEWIGRINPDNGATNYNQNVKDKASLTVDKSSNTAYMELHSLTSEDSAVYYCARWLLSPYVMDYWGQGTSVTVSS
VL: DIVLTQSPASLAVSLGQRATISYRASKSVSTSGYSYMHWNQQKPGQPPRLLIYLVSNLESGVPARFSGSGSGTDFTLNIHPVEEEDAATYYCQHIRELTRSEGGPSW
For B1, the O.D (450nm) in ELISA screening plate was 2.31 O.D (450nm).

B2: 7F32 (antibody, V domains shown)
VH: EVQLVESGGDLVKPGGSLKLSCAASGFTFSNYGMSWGRQTPDKRLEWVATISSGGSYTYYPDSLKGRFTISRDNAKNTLYLQMTSLKSEDTAMYYCSSPYYDSSYDYSLDYWGQGTSVTVSS
VL: DIVLTQSPASLAVSLGQRATISYRASKSVSTSGYSYMHWNQQKPGQPPRLLIYLVSNLESGVPARFSGSGSGTDFTLNIHPVEEEDAATYYCQHIRELTRSEGGPSW
B2 was tested, and the O.D (450nm) in ELISA screening plate was 0.91 O.D (450nm).
